Reference: article PMC7504066

Legend:
[1] = molecular target: Plasmodium vivax PLP synthase domain (Pdx1) (Plasmodium vivax); experiment: SAXS; batch SAXS at EMBL beamline P12 (PETRA III), 293 K; Pdx1 and SEC-purified Pdx complex (mixed 1:1, overnight) at 1, 2 and 5 mg mL^-1; ab initio (GASBOR, P6) and rigid body (SASREF) models, SAXSMoW mass
[2] = molecular target: Plasmodium vivax PLP synthase domain (Pdx1) (Plasmodium vivax); experiment: negative-stain electron microscopy; Pdx1 alone, 25-30 µg mL^-1 in 20 mM Tris pH 8.0, 200 mM NaCl, 5 mM MTG, 2% uranyl acetate
[3] = molecular target: Plasmodium vivax PLP synthase domain (Pdx1) (Plasmodium vivax); experiment: dynamic light scattering; purified Pdx1 alone and SEC-purified Pdx complex in a quartz cuvette, Spectroscatter-301, 660 nm laser, 90° angle
[4] = molecular target: Plasmodium vivax PLP synthase domain (Pdx1) (Plasmodium vivax); experiment: SEC; each protein alone on a Superdex 200 26/60 column; peak fractions evaluated by PAGE
[5] = molecular target: Plasmodium vivax PLP synthase domain (Pdx1) (Plasmodium vivax); experiment: native gel or EMSA; native PAGE of the purified proteins and of the SEC-purified Pdx complex

stoichiometry N (Pdx2 per Pdx1 dodecamer (12:12)) [1]	stoichiometry N [2]	stoichiometry N [3]	stoichiometry N [4]	stoichiometry N [1]	stoichiometry N [5]	Substance
12						Plasmodium vivax glutaminase domain (Pdx2) (enzyme)
	12	12	12	12	12	Plasmodium vivax PLP synthase domain (Pdx1) (enzyme)
